# B1: periplasmic domain of E. coli MlaD (residues 32-183), MlaD^32-183 (domain or fragment, UniProt P64604 32-183, looked up)
# chain: TSIRTEPTYTLYATFDNIGGLKARSPVSIGGVVVGRVADITLDPKTYLPRVTLEIEQRYNHIPDTSSLSIRTSGLLGEQYLALNVGFEDPELGTAILKDGDTIQDTKSAMVLEDLIGQFLYGSKGDDNKNSGDAPAAAPGNNETTEPVGTTK
# notes: synthesised (Genscript), cloned in pET26b; No cleavage of the His tag is described; In the functional rows of the MlaC mutants the wild-type MlaD stood as part of MlaFEDB in acceptor proteoliposomes, not as this fragment; source: E. coli BL21(DE3), purified (Ni-NTA, Superdex 200); lipid removed with β-OG and loaded with cardiolipin where stated
# Target: the molecule itself
# Test: cryo-EM structure; cardiolipin-loaded MlaD^32-183 with MlaC-apo, cross-linked with 0.1% glutaraldehyde, 0.8 mg/mL in 20 mM Tris pH 8.0, 150 mM NaCl; 1:6 map at 4.35 Å, 2:6 map at 4.38 Å
protein,measurement,value
B1,stoichiometry N,6

# — article PMC11289387, “Structure of the MlaC-MlaD complex reveals molecular basis of periplasmic phospholipid transport” (Nature Communications, 2024)
